Reference: article PMC7815493 (Redox Biology, 2021)
Blank lines part the entries; values can stand above or below the binder they belong to.

How the values were obtained:
[1] = target: the molecule itself; test: non-reducing SDS-PAGE and immunoblot
[2] = target: T1, HMGB1:LK:CFP, P09429; test: FRET or BRET; conditions: remark: other sources report otherwise
T1 chain: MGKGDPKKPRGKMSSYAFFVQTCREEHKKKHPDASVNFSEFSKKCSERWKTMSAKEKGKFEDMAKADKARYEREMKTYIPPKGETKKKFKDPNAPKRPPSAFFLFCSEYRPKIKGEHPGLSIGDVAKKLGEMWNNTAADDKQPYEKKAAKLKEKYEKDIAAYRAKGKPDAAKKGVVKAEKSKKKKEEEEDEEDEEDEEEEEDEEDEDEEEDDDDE

[3] = target: T2, Six His-tagged HMGB1 recombinant protein, P09429; test: MALDI-TOF MS; conditions: remark: other sources report otherwise
T2 chain: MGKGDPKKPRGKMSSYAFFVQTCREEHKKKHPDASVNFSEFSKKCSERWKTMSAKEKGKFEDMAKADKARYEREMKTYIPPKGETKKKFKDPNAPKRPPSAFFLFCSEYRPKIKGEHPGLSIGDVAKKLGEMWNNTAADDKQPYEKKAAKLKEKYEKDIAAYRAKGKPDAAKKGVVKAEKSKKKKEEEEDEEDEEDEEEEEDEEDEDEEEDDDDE

[4] = target: T2, Six His-tagged HMGB1 recombinant …; conditions: remark: other sources report otherwise

B1: HMGB1 box B (aa 88-162) (domain or fragment, UniProt P09429 88-162, looked up)
chain: KFKDPNAPKRPPSAFFLFCSEYRPKIKGEHPGLSIGDVAKKLGEMWNNTAADDKQPYEKKAAKLKEKYEKDIAAY
binding result [1]: binds

FRET efficiency [2]: 17.1%
B2: YFP:LK:HMGB1, P09429 1-215 (natural protein)
chain: MGKGDPKKPRGKMSSYAFFVQTCREEHKKKHPDASVNFSEFSKKCSERWKTMSAKEKGKFEDMAKADKARYEREMKTYIPPKGETKKKFKDPNAPKRPPSAFFLFCSEYRPKIKGEHPGLSIGDVAKKLGEMWNNTAADDKQPYEKKAAKLKEKYEKDIAAYRAKGKPDAAKKGVVKAEKSKKKKEEEEDEEDEEDEEEEEDEEDEDEEEDDDDE

stoichiometry N [3]: 2
percent of molecules that are dimers [4]: 70%
B3: Six His-tagged HMGB1 recombinant protein, P09429 1-215 (natural protein)
chain: MGKGDPKKPRGKMSSYAFFVQTCREEHKKKHPDASVNFSEFSKKCSERWKTMSAKEKGKFEDMAKADKARYEREMKTYIPPKGETKKKFKDPNAPKRPPSAFFLFCSEYRPKIKGEHPGLSIGDVAKKLGEMWNNTAADDKQPYEKKAAKLKEKYEKDIAAYRAKGKPDAAKKGVVKAEKSKKKKEEEEDEEDEEDEEEEEDEEDEDEEEDDDDE
